Assay results from US20050064411.

Tests used:
[1] = target: T1, FLAG-AICD, P05067
T1 chain: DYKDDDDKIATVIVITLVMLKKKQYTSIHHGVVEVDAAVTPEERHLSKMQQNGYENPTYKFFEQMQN

[2] = target: SOD1 mutants

B1: NEDL-1 protein (protein)
chain: MASPSRNSQSRRRCKEPLRYSYNPDQFHNMDLRGGPHDGVTIPRSTSDTDLVTSDSRSTLMVSSSYYSIGHSQDLVIHWDIKEEVDAGDWIGMYLIDEVLSENFLDYKNRGVNGSHRGQIIWKIDASSYFVEPETKICFKYYHGVSGALRATTPSVTVKNSAAPIFKSIGADETVQGQGSRRLISFSLSDFQAMGLKKGMFFNPDPYLKISIQPGKHSIFPALPHHGQERRSKIIGNTVNPIWQAEQFSFVSLPTDVLEIEVKDKFAKSRPIIKRFLGKLSMPVQRLLERHAIGDRVVSYTLGRRLPTDHVSGQLQFRFEITSSIHPDDEEISLSTEPESAQIQDSPMNNLMESGSGEPRSEAPESSESWKPEQLGEGSVPDRPGNQSIELSRPAEEAAVITEAGDQGMVSVGPEGAGELLAQVQKDIQPAPSAEELAEQLDLGEEASALLLEDGEAPASTKEEPLEEEATTQSRAGREEEEKEQEEEGDVSTLEQGEGRLQLRASVKRKSRPCSLPVSELETVIASACGDPETPRTHYIRIHTLLHSMPSAQGGSAAEEEDGAEEESTLKDSSEKDGLSEVDTVAADPSALEEDREEPEGATPGTAHPGHSGGHFPSLANGAAQDGDTHPSTGSESDSSPRQGGDHSCEGCDASCCSPSCYSSSCYSTSCYSSSCYSASCYSPSCYNGNRFASHTRFSSVDSAKISESTVFSSQDDEEEENSAFESVPDSMQSPELDPESTNGAGPWQDELAAPSGHVERSPEGLESPVAGPSNRREGECPILHNSQPVSQLPSLRPEHHHYPTIDEPLPPNWEARIDSHGRVFYVDHVNRTTTWQRPTAAATPDGMRRSGSIQQMEQLNRRYQNIQRTIATERSEEDSGSQSCEQAPAGGGGGGGSDSEAESSQSSLDLRREGSLSPVNSQKITLLLQSPAVKFITNPEFFTVLHANYSAYRVFTSSTCLKHMILKVRRDARNFERYQHNRDLVNFINMFADTRLELPRGWEIKTDQQGKSFFVDHNSRATTFIDPRIPLQNGRLPNHLTHRQHLQRLRSYSAGEASEVSRNRGASLLARPGHSLVAAIRSQHQHESLPLAYNDKIVAFLRQPNIFEMLQERQPSLARNHTLREKIHYIRTEGNHGLEKLSCDADLVILLSLFEEEIMSYVPLQAAFHPGYSFSPRCSPCSSPQNSPGLQRASARAPSPYRRDFEAKLRNFYRKLEAKGFGQGPGKIKLIIRRDHLLEGTFNQVMAYSRKELQRNKLYVTFVGEEGLDYSGPSREFFFLLSQELFNPYYGLFEYSANDTYTVQISPMSAFVENHLEWFRFSGRILGLALIHQYLLDAFFTRPFYKALLRLPCDLSDLEYLDEEFHQSLQWMKDNNITDILDLTFTVNEEVFGQVTERELKSGGANTQVTEKNKKEYIERMVKWRVERGVVQQTEALVRGFYEVVDSRLVSVFDARELELVIAGTAEIDLNDWRNNTEYRGGYHDGHLVIRWFWAAVERFNNEQRLRLLQFVTGTSSVPYEGFAALRGSNGLRRFCIEKWGKITSLPRAHTCFNRLDLPPYPSYSMLYEKLLTAVEETSTFGLE
How did the “ubiquitination (bands increasing by about 9 kD detected with anti-ubiquitin antibody)” value [1] turn out when B1 was run?
The value was “It is understood that ACID alone is subjected to ubiquitination by NEDL-1”.

And the “ubiquitination (immunoprecipitation with FLAG, blotting with anti-ubiquitin antibody, FIG. 13)” value [2]?
Its value is “the degree of ubiquitination drastically increases in the presence of NEDL-1”.
